Test results from paper PMC10624354 (Science Advances, 2023).

T1: PIF4-NLuc (Arabidopsis, UniProt Q8W2F3 1-430)
T1 sequence (looked up): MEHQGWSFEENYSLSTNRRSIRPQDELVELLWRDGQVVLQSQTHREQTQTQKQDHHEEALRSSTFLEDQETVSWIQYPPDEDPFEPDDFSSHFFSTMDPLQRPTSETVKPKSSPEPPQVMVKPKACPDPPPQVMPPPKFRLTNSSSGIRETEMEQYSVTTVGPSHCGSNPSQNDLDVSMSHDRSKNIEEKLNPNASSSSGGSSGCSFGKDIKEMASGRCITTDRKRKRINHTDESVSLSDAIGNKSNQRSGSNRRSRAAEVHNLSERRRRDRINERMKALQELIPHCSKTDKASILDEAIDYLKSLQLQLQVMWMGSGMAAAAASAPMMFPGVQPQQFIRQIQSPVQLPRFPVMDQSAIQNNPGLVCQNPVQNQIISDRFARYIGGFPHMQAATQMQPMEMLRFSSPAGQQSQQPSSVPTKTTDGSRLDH

B1: HIS-tagged PIF4 (natural protein, Arabidopsis, UniProt Q8W2F3 1-430, looked up)
chain: MEHQGWSFEENYSLSTNRRSIRPQDELVELLWRDGQVVLQSQTHREQTQTQKQDHHEEALRSSTFLEDQETVSWIQYPPDEDPFEPDDFSSHFFSTMDPLQRPTSETVKPKSSPEPPQVMVKPKACPDPPPQVMPPPKFRLTNSSSGIRETEMEQYSVTTVGPSHCGSNPSQNDLDVSMSHDRSKNIEEKLNPNASSSSGGSSGCSFGKDIKEMASGRCITTDRKRKRINHTDESVSLSDAIGNKSNQRSGSNRRSRAAEVHNLSERRRRDRINERMKALQELIPHCSKTDKASILDEAIDYLKSLQLQLQVMWMGSGMAAAAASAPMMFPGVQPQQFIRQIQSPVQLPRFPVMDQSAIQNNPGLVCQNPVQNQIISDRFARYIGGFPHMQAATQMQPMEMLRFSSPAGQQSQQPSSVPTKTTDGSRLDH

Legend:
PIF4-NLuc = target: T1, PIF4-NLuc; test: split reporter
HIS-tagged PIF4 = target: B1; test: pull-down
MBP-tagged HSFA1d = MBP-tagged HSFA1d (Arabidopsis, UniProt Q9LQM7 1-485); test: pull-down
Chain of MBP-tagged HSFA1d (Q9LQM7 whole entry): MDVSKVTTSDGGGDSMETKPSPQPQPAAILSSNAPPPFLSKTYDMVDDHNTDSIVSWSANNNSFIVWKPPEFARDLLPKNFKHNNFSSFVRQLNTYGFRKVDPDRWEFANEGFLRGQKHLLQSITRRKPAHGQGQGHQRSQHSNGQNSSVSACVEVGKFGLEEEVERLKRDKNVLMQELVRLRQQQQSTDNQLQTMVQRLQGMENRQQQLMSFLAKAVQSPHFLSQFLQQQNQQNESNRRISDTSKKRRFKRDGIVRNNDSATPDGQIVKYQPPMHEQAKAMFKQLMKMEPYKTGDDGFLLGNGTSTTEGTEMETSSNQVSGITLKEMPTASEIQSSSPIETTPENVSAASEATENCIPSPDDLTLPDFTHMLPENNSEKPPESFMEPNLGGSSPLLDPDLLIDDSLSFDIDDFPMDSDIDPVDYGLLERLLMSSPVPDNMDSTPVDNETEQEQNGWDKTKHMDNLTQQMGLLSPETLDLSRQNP

| Binder | binding result (HIS-tagged PIF4) | further results |
| --- | --- | --- |
| HSFA1d-CLuc (natural protein) not shown | – | fold increase of luciferase activity at 28°C against 21°C (PIF4-NLuc): ~60 fold |
| MBP-HSFA1d-S2 (oligomerization domain HR-A/B and NLS, amino acids 145 to 260) (domain or fragment, Arabidopsis, UniProt Q9LQM7 145-260, looked up) GQNSSVSACVEVGKFGLEEEVERLKRDKNVLMQELVRLRQQQQSTDNQLQTMVQRLQGMENRQQQLMSFLAKAVQSPHFLSQFLQQQNQQNESNRRISDTSKKRRFKRDGIVRNND | binds | – |
| MBP-HSFA1d-S1 (DNA binding domain, amino acids 1 to 144) (domain or fragment) not shown | binds | – |
| B1 | – | binding result (MBP-tagged HSFA1d): binds |
